# Experimental data as given in publication PMC2852888.
# Like-named read-outs stand apart in the source and are kept apart here.
# B1: MLP E-box 16-mer, label not stated (dsDNA)
# DNA 1: TAGGCCACGTGACCGG
# DNA 2: CCGGTCACGTGGCCTA
# B2: MLP E-box 16-mer, FITC-labelled (dsDNA)
# DNA 1: TAGGCCACGTGACCGG
# DNA 2: CCGGTCACGTGGCCTA
# Tests used:
# [1] = target: Max b/HLH/Z domain (amino acids 22-113) (UniProt P61244); experiment: fluorescence polarisation
# [2] = target: Max b/HLH/Z domain (amino acids 22-113) (UniProt P61244); experiment: fluorescence polarisation; remark: listed apart in the source
# [3] = target: Max b/HLH/Z domain (amino acids 22-113) (UniProt P61244); experiment: fluorescence polarisation; remark: listed apart in the source
# [4] = target: Max b/HLH/Z domain (amino acids 22-113) (UniProt P61244); experiment: fluorescence polarisation; remark: listed apart in the source
# [5] = target: T1, c-Myc b/HLH/Z;Max b/HLH/Z (;, UniProt P01106-1;P61244 347-439;22-113, |); experiment: stopped-flow fluorescence anisotropy
# T1 sequence (P01106 362-454, chain 1 of 2): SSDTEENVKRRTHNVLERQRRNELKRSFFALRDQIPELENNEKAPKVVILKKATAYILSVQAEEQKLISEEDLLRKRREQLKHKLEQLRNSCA
# T1 sequence (P61244 22-113, chain 2 of 2): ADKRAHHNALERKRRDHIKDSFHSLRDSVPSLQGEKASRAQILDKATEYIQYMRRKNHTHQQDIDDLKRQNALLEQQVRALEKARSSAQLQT
# [6] = target: T2, Max b/HLH/Z (UniProt P61244 22-113); experiment: stopped-flow fluorescence anisotropy
# T2 sequence (P61244 22-113): as the sequence (P61244 22-113, chain 2 of 2) above
# [7] = target: T3, Mad1;Max b/HLH/Z (;, UniProt Q05195;P61244 1-221;22-113, |); experiment: stopped-flow fluorescence anisotropy
# T3 sequence (Q05195 whole entry, chain 1 of 2): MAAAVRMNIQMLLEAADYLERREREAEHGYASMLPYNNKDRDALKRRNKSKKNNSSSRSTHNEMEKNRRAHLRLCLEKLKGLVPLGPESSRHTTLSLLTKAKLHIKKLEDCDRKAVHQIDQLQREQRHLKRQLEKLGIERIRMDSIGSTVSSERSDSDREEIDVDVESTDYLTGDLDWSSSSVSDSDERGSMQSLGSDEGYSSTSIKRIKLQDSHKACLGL
# T3 sequence (P61244 22-113, chain 2 of 2): as the sequence (P61244 22-113, chain 2 of 2) above
# [8] = target: Max b/HLH/Z monomer (UniProt P61244 22-113); experiment: stopped-flow fluorescence anisotropy
# Chain of Max b/HLH/Z monomer (P61244 22-113): as the sequence (P61244 22-113, chain 2 of 2) above
# [9] = target: T3, Mad1;Max b/HLH/Z; experiment: stopped-flow fluorescence anisotropy; remark: listed apart in the source
# [10] = target: T1, c-Myc b/HLH/Z;Max b/HLH/Z; experiment: stopped-flow fluorescence anisotropy; remark: listed apart in the source
# [11] = target: T2, Max b/HLH/Z; experiment: stopped-flow fluorescence anisotropy; remark: listed apart in the source
# Chain of Max b/HLH/Z domain (amino acids 22-113) (P61244 22-113): as the sequence (P61244 22-113, chain 2 of 2) above
molecule,measurement,setting,value
c-Myc b/HLH/Z domain (amino acids 347-439) (domain or fragment),kobs (association rate constant),[1],109 s⁻¹
same,kobs (association rate constant),[2],90 s⁻¹
same,kobs (association rate constant),[3],67 s⁻¹
same,association rate constant with the Max·DNA complex,[4],126 s⁻¹
same,"k2 (forward rate constant of the second step, from the intercept)",[4],91 s⁻¹
same,kobs (association rate constant),[4],118 s⁻¹
B1,binding result,[5],binds
same,binding result,[6],binds
same,binding result,[7],binds
same,binding result,[8],binds
B2,binding result,[9],binds
same,binding result,[10],binds
same,binding result,[11],binds
